# Assay results as given in the RNAGym collection of RNA variant scans (doi:10.7554/elife.90254).
# B1: LINE1-full (parent)
# chain: UACGUAGGUGGUUUUCCCCUGAUAGUGCUAAGGGGGCCUGGAAGUUUGGACUGGGCAGAGCUCAACACAGCGUGGCAAAGUGGCUGUGGCUAGACUGCCUCUCUGGAUUCCUCGUCACUCAGCAGGGCAUCUCUGAGAGAAAUGCC
# Variants of: B1
# Test: self-cleavage, relative activity (ratio to wild type); higher = more cleavage; in vitro, sequencing; the parent is a self-cleaving ribozyme
row,Variant,self-cleavage
1,A30G G114A,0.92
2,A57G G82A,1.75
3,A42G G89U,0.02
4,U45A C146U,1.37
5,C84U U109C,0.1
6,U23C C133A,1.09
7,U46A U102C,1.28
8,U62C A69U,0.03
9,U5A U85A,0.14
10,G11A G70U,0.07
11,U46C A79U,1.83
12,A31U G70A,0.26
13,U1A U47G,1.53
14,A30G C66U,0.05
15,G41A U102A,1.05
16,A24G A50G,1.16
17,A59G G75A,0.04
18,U85A U108A,0.17
19,U9C G36C,2.16
20,A57C C131A,0.08
21,A42G G127U,1.9
22,A79U U143C,2.02
23,U9C U45G,1.56
24,G7A U46A,1.23

row,Variant,self-cleavage
1,U1G A64G,0.46
2,A31U A42G,1.46
3,A2C U119C,0.89
4,U102C C110U,1.78
5,G7U U39A,1.67
6,A42U A67G,0.21
7,U91C A136G,0.8
8,C37U U91C,0.27
9,U5C A57C,0.49
10,G41C U115A,1.88
11,G55C A67G,0.05
12,U46C G48A,1.04
13,U14G U52A,1.08
14,U45C G137U,1.23
15,U14G A129G,0.84
16,G8C A141U,1.33
17,U47A U81C,1.57
18,U12C U115G,2.63
19,A78G A94U,0.19
20,U45C U73G,1.22
21,U20A G72A,1.31
22,A77G A124U,1.84
23,A24U U46A,0.91
24,C120A A140G,1.32

row,Variant,self-cleavage
1,A77G C113A,2.1
2,G32A,1.23
3,U132C U143A,1.35
4,C16A U20A,1.64
5,A22U U130A,1.38
6,A31U A79U,2.19
7,A30U U52C,1.09
8,A57G U108C,1.48
9,G36U A94G,0.12
10,U108C U112A,1.94
11,A129G A142G,1.67
12,A69U U112C,0.06
13,U39A U115A,1.42
14,U20A A43U,1.46
15,U1C A138G,0.7
16,G36U U134C,1.99
17,A64G G86A,0.08
18,A57G U143A,0.84
19,C19U G32A,0.87
20,A57C U81G,0.16
21,U5C U91C,0.48
22,U52G A64U,0.7
23,A64G A69G,0.07
24,U119C A140U,0.97

row,Variant,self-cleavage
1,U46A U104C,1.96
2,U14C U109A,1.18
3,A31U A140U,0.94
4,C110A A121U,1.32
5,U23C U85C,0.22
6,U12C U20A,1.23
7,U81C U119C,1.84
8,G93U G122A,0.06
9,G82A U85C,0.23
10,A43G A142G,1.5
11,A77U U81A,1.89
12,U14C C120U,1.48
13,U5A U132A,1.38
14,C19A A50G,1.48
15,U87A G97U,0.08
16,G11A U109C,1.4
17,U46A U143A,1.38
18,A24G U29C,1.41
19,U109A U115C,1.43
20,U12G G36A,0.22
21,U52C U73A,1.21
22,G58U A59G,0.06
23,U81C G88U,0.05
24,U47G U100A,0.42

row,Variant,self-cleavage
1,U20A U112C,0.79
2,U13A A43G,0.96
3,U96C C128U,0.12
4,U1A U104A,1.2
5,U29A U39G,1.58
6,U91C U96A,0.08
7,C113A A117U,1.03
8,G35U A140G,1.21
9,A117G U134C,1.73
10,U13C U29A,0.95
11,U14A A107G,1.1
12,U29C U143C,1.75
13,C38A U52C,0.99
14,U15C C68U,0.19
15,A107G U130G,1.15
16,A31U U112A,1.8
17,G7A G127A,1.3
18,U52A A65U,0.21
19,A30U U102C,0.75
20,U14A C131U,0.21
21,U26A G72A,0.94
22,U14C U39A,1.12
23,G33A A136U,1.69
24,C90U U134G,0.04

row,Variant,self-cleavage
1,U9C A79G,1.35
2,C51U A67C,0.05
3,G33C C128U,0.92
4,A65U A77G,0.3
5,C76U U130C,2.22
6,U47A A142G,1.4
7,G32A U39A,1.66
8,U5C G126A,1.36
9,C76U A94C,0.11
10,U15C U20A,1.12
11,A77U G127A,1.48
12,A59G A142G,0.07
13,U15A A57U,0.14
14,C3U A69U,0.13
15,U39C U109C,1.49
16,C37U U52C,1.13
17,G4C A107U,1.49
18,U14A A121G,0.94
19,U39A C103U,1.74
20,U52A C84U,0.14
21,G48U U52A,0.81
22,U13C G32C,0.7
23,U5A A138C,0.98
24,G8A G125U,1.53

row,Variant,self-cleavage
1,A43U G122A,1.02
2,C98G G125A,0.05
3,U29C A64U,0.54
4,G10A A141G,0.94
5,U9C C120U,1.3
6,U109A U112C,1.08
7,A67G U73A,0.24
8,G32A U81G,1.36
9,U85G A94G,0.36
10,U20G A22G,0.41
11,G32A U96C,0.13
12,A94G A117U,0.4
13,A77G C103A,2.24
14,C133A A136U,1.38
15,A6U A79G,0.8
16,U91A U134A,0.18
17,U47C C90G,0.04
18,A69G C146A,0.77
19,A43C U119C,1.62
20,A67C A129G,0
21,G74A A79U,2.06
22,C133A,1.37
23,U9A G70A,0.12
